Results taken from PMC3547700.

Biological target: V5-UL56 (HCMV strain AD169), plasmid-expressed (human cytomegalovirus strain AD169)

“MYC-UL89 (HCMV strain AD169), plasmid-expressed (natural protein)” showed a percentage of transfected HEK-293 T cells with nuclear staining of UL56 by confocal microscopy, in the presence of UL89 (UL56 alone exclusively cytoplasmic) (% of cells with nuclear staining) of 37 and a percentage of transfected HEK-293 T cells with nuclear staining of UL89 by confocal microscopy, in the presence of UL56 (UL89 alone exclusively cytoplasmic) (% of cells with nuclear staining) of 26.
“FLAG-UL51 (HCMV strain AD169), plasmid-expressed (natural protein)” showed a percentage of transfected HEK-293 T cells with nuclear staining of UL56 by confocal microscopy, in the presence of UL51 (UL56 alone exclusively cytoplasmic) (% of cells with nuclear staining) of 62.
